Columns and labels:
[1] = target: DNA mismatch repair protein Msh6 (human) (UniProt P52701); assay: co-IP from CTC41.5E lysate, LC-MS/MS, peak area against isotype IP
[2] = target: DNA topoisomerase 1 (human) (UniProt P11387); assay: as above
[3] = target: DNA-dependent protein kinase catalytic subunit (DNA-PK) (human) (UniProt P78527); assay: as above
[4] = target: Replication protein A 70 kDa DNA-binding subunit (human) (UniProt P27694); assay: as above
[5] = target: Poly [ADP-ribose] polymerase 2 (human) (UniProt Q9UGN5); assay: as above
[6] = target: DNA-directed RNA polymerase I subunit RPA1 (human) (UniProt O95602); assay: as above
[7] = target: X-ray repair cross-complementing protein 5 (human) (UniProt P13010); assay: as above
[8] = target: DNA repair protein complementing XP-C cells (human) (UniProt Q01831); assay: as above
Histone H3.1 (human) = Histone H3.1 (human) (UniProt P68431); assay: as above
[9] = target: SWI/SNF-related matrix-associated actin-dependent regulator of chromatin subfamily A member 5 (human) (UniProt O60264); assay: as above
[10] = target: DNA topoisomerase 2-beta (human) (UniProt Q02880); assay: as above
[11] = target: FACT complex subunit SPT16 (human) (UniProt Q9Y5B9); assay: as above
Histone H2A.Z (human) = Histone H2A.Z (human) (UniProt P0C0S5); assay: as above
[12] = target: UV excision repair protein RAD23 homolog B (human) (UniProt P54727); assay: as above
DNA ligase 3 (human) = DNA ligase 3 (human) (UniProt P49916); assay: as above
[13] = target: DNA mismatch repair protein Msh2 (human) (UniProt P43246); assay: as above
[14] = target: Core histone macro-H2A.1 (human) (UniProt O75367); assay: as above
[15] = target: Werner syndrome ATP-dependent helicase (human) (UniProt Q14191); assay: as above
[16] = target: Poly [ADP-ribose] polymerase 1 (human) (UniProt P09874); assay: as above
[17] = target: X-ray repair cross-complementing protein 6 (human) (UniProt P12956); assay: as above
[18] = target: Sister chromatid cohesion protein PDS5 homolog B (human) (UniProt Q9NTI5); assay: as above
[19] = target: DNA topoisomerase 2-alpha (human) (UniProt P11388); assay: as above
[20] = target: T1, recombinant human NRP-1 (3870-N1-025, Bio-Techne) (human, UniProt O14786 22-856); assay: ELISA, antibody 10 µg/ml, 1 µg immobilised human NRP-1
T1 construct: extracellular domain; bought protein; also called human recombinant NRP-1

NRP-1 peptide (Npep) = target: T2, NRP-1 peptide (Npep); assay: ELISA, antibody 10 µg/ml, 2 µg immobilised Npep
T2 construct: also called synthetic peptide Npep
T2 peptide: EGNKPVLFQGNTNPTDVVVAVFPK

[21] = target: T3, native human NRP-1 on the cell surface (human, UniProt O14786 22-923); assay: flow cytometry, MDA-MB-231 cells, 10 ug/ml, with against without heparinase
T3 construct: whole, on cells; endogenous protein; isoform and glycosaminoglycan state on the cells not defined; also called native NRP-1 on MDA-MB-231 cells; native form of NRP-1 protein on the CTCs cell surface

[22] = target: T3, native human NRP-1 on the cell surface; assay: flow cytometry, MDA-MB-231 cells, 40 ug/ml, with against without chondroitinase
Protocol: (§1) Chondroitinase (C2905, Sigma) was reconstituted in a 0.01% BSA aqueous solution. The MDA-MB-231 cells were treated with chondroitinase (1 U/ml) for 2 hours at 37° C. The cells were detached using cell dissociation solution non-enzymatic (C5914, Sigma). 300,000 cells per condition were washed with 2% FBS in PBS and then incubated with different antibodies of interest or their respective isotype controls at 40 μg/ml for 30 min at 4° C. After wash, an Alexa 488-conjugated anti-human immunoglobulin antibody (20022-1, Biotium) was added at 10 μg/ml for 30 min at 4° C. After a final wash, fluorescence, size and granularity of cells were measured by the LSR Fortessa cytometer (BD Biosciences).

[23] = target: T4, recombinant murine NRP-1 (5994-N1-050, Bio-Techne) (murine, UniProt P97333 22-856); assay: ELISA, antibody 10 µg/ml, 1 µg immobilised murine NRP-1
T4 construct: extracellular domain; bought protein; also called mouse recombinant NRP-1

[24] = target: T3, native human NRP-1 on the cell surface; assay: flow cytometry, MDA-MB-231 cells, 40 ug/ml, -chondroitinase
Protocol: as §1

B1: variant 4 of a-NRP1_LEP n° 1 (antibody, V domains shown)
VH: EVQLVESGGGLVQPGGSLRLSCAASGFTFSSFGMHWVRQAPGKGLEWVAYISSGSSTIHYADSVKGRFTISRDNAKNSLYLQMNSLRAEDTAMYYCARRHYGSSRYWYFDVWGQGTTVTVSS
VL: EIVLTQSPATLSLSPGERATLSCRASQSVKSYLAWYQQKPGQAPRLLIYYASSRATGIPARFSGSGSGTDFTLTISSLEPEDFAVYYCQQYSESPYTFGQGTKLEIK
notes: humanized variant of 21B10; isotype control hIgG4; also called variant 4 a-NRP1_LEP; variant n°4 a-NRP1_LEP
- Ratio Area V4/IgG4 [1]: 813
- Ratio Area V4/IgG4 [2]: 6880
- Ratio Area V4/IgG4 [3]: 10.5
- Ratio Area V4/IgG4 [4]: 13.6
- Ratio Area V4/IgG4 [5]: 1
- Ratio Area V4/IgG4 [6]: 785
- Ratio Area V4/IgG4 [7]: 38.7
- Ratio Area V4/IgG4 [8]: 480
- Ratio Area V4/IgG4 (Histone H3.1 (human)): 304
- Ratio Area V4/IgG4 [9]: 589
- Ratio Area V4/IgG4 [10]: 50.1
- Ratio Area V4/IgG4 [11]: 5490
- Ratio Area V4/IgG4 (Histone H2A.Z (human)): 624
- Ratio Area V4/IgG4 [12]: 307
- Ratio Area V4/IgG4 (DNA ligase 3 (human)): 7770
- Ratio Area V4/IgG4 [13]: 335
- Ratio Area V4/IgG4 [14]: 8780
- Ratio Area V4/IgG4 [15]: 759
- Ratio Area V4/IgG4 [16]: 709
- Ratio Area V4/IgG4 [17]: 58.8
- Ratio Area V4/IgG4 [18]: 12.5
- Ratio Area V4/IgG4 [19]: 538
- Absorbance [20]: 0.953
- Absorbance (NRP-1 peptide (Npep)): 0.855
- delta (% of control) [21]: -2.3%
- delta (% of control) [22]: -6.8%
- Absorbance [23]: 0.986
- percentage of binding [24]: 93.2%

Reference: patent US20260226176A1 (THERANOVIR, published 2026)
